Laboratory results from patent US20210292396A1.

Columns and labels:
Test in all cases: cell-based or functional assay
[1] = biological target: Env of HIV isolate ZM233.6 (clade C) (HIV)
[2] = biological target: Env of HIV isolate SS1196.01 (clade B) (HIV)
[3] = biological target: HIV Env of isolate ZM55.28a (HIV)
[4] = biological target: HIV Env of isolate 6785.v5.c14 (HIV)
[5] = biological target: Env of HIV isolate BB539.2B13 (clade A) (HIV)
[6] = biological target: Env of HIV isolate MB539.2B7 (clade A) (HIV)
[7] = biological target: HIV Env of isolate TV1.29 (HIV)
[8] = biological target: Env of HIV isolate CNE20 (clade BC) (HIV)
[9] = biological target: Env of HIV isolate Bal.01 (clade B) (HIV)
[10] = biological target: HIV Env of isolate 6471.v1.c16 (HIV)
[11] = biological target: Env of HIV isolate SO18.18 (clade C) (HIV)
[12] = biological target: Env of HIV isolate 3326.v4.c3 (clade CD) (HIV)
[13] = biological target: HIV Env of isolate X2131.C1.B5 (HIV)
[14] = biological target: Env of HIV isolate C4118.09 (clade AE) (HIV)
[15] = biological target: Env of HIV isolate 6535.3 (clade B) (HIV)
[16] = biological target: Env of HIV isolate 3468.v1.c12 (clade AD) (HIV)
[17] = biological target: HIV Env of isolate ZM214.15 (HIV)
[18] = biological target: Env of HIV isolate DU151.02 (clade C) (HIV)
[19] = biological target: HIV Env of isolate DU172.17 (HIV)
[20] = biological target: Env of HIV isolate T33-7 (clade AG) (HIV)
[21] = biological target: Env of HIV isolate 0815.v3.c3 (clade ACD) (HIV)
[22] = biological target: Env of HIV isolate CH181.12 (clade BC) (HIV)
[23] = biological target: Env of HIV isolate T278-50 (clade AG) (HIV)
[24] = biological target: Env of HIV isolate ZM214.15 (clade C) (HIV)
[25] = biological target: Env of HIV isolate CNE4 (clade B) (HIV)
[26] = biological target: Env of HIV isolate BJOX010000.06.2 (clade AE) (HIV)
[27] = biological target: Envelope protein of SIVmac251.30.SG3 (clade NA)
[28] = biological target: HIV Env of isolate 0013095-2.11 (HIV)
[29] = biological target: Env of HIV isolate 6471.v1.c16 (clade C) (HIV)
[30] = biological target: Env of HIV isolate A07412M1.vrc12 (clade D) (HIV)
[31] = biological target: Env of HIV isolate CNE10 (clade B) (HIV)
[32] = biological target: Env of HIV isolate 3016.v5.c45 (clade D) (HIV)
[33] = biological target: HIV Env of isolate TZA125.17 (HIV)
[34] = biological target: Env of HIV isolate T250-4 (clade AG) (HIV)
[35] = biological target: Env of HIV isolate 246-F3.C10.2 (clade AC) (HIV)
[36] = biological target: Env of HIV isolate 16936-2.21 (clade C) (HIV)
[37] = biological target: 208-member cross-clade virus panel
[38] = biological target: Env of HIV isolate UG037.8 (clade A) (HIV)
[39] = biological target: Env of HIV isolate TZBD.02 (clade C) (HIV)
[40] = biological target: Env of HIV isolate AC10.29 (clade B) (HIV)
[41] = biological target: Env of HIV isolate 3718.v3.c11 (clade A) (HIV)
[42] = biological target: HIV Env of isolate 191821.E6.1 (HIV)
[43] = biological target: Env of HIV isolate 263-8 (clade AG) (HIV)

B1: ePGT121.15 (ePGT121.15.H6 VH and ePGT121.15.L1 VL) (antibody, V domains shown)
VH: QMQLQESGPGLVKPGETLSLTCSVSGASISSSYWSWLRETPGKGLEWIGYTHHSGDTNYAPSLKSRVHLGLHPSKNQVSLSLTSVTAADTAVYYCARTLHGRRIYGVVAFNEFFTYFYWEVWGKGTQVTVSS
VL: SDISVAPGETVRISCGGESIGSRAVQWYQHRAGQAPKLIIYNNQDRPPGIPERFSGSPDIDFGTTATLTITNVEAGDEATYYCHIWDSRRPTNWVFGGGTTLTVL
IC50, pseudovirus neutralization [1]: 0.016 µg/mL
IC50, pseudovirus neutralization [2]: 0.003 µg/mL
IC80, pseudovirus neutralization [3]: 0.029 µg/mL
IC80, pseudovirus neutralization [4]: 0.01 µg/mL
IC50, pseudovirus neutralization [5]: > 50 µg/mL
IC50, pseudovirus neutralization [6]: > 50 µg/mL
IC80, pseudovirus neutralization [7]: 0.01 µg/mL
IC50, pseudovirus neutralization [8]: 0.003 µg/mL
IC50, pseudovirus neutralization [9]: 0.002 µg/mL
IC80, pseudovirus neutralization [10]: 6.35 µg/mL
IC50, pseudovirus neutralization [11]: 0.004 µg/mL
IC50, pseudovirus neutralization [12]: 0.362 µg/mL
IC80, pseudovirus neutralization [13]: 0.004 µg/mL
IC50, pseudovirus neutralization [14]: > 50 µg/mL
IC50, pseudovirus neutralization [15]: 0.0007 µg/mL
IC50, pseudovirus neutralization [16]: 0.002 µg/mL
IC80, pseudovirus neutralization [17]: 0.126 µg/mL
IC50, pseudovirus neutralization [18]: 0.002 µg/mL
IC80, pseudovirus neutralization [19]: 0.007 µg/mL
IC50, pseudovirus neutralization [20]: > 50 µg/mL
IC50, pseudovirus neutralization [21]: 0.002 µg/mL
IC50, pseudovirus neutralization [22]: 0.003 µg/mL
IC50, pseudovirus neutralization [23]: 4.87 µg/mL
IC50, pseudovirus neutralization [24]: 0.028 µg/mL
IC50, pseudovirus neutralization [25]: 0.004 µg/mL
IC50, pseudovirus neutralization [26]: > 50 µg/mL
IC50, pseudovirus neutralization [27]: > 50 µg/mL
IC80, pseudovirus neutralization [28]: 11.9 µg/mL
IC50, pseudovirus neutralization [29]: 1.04 µg/mL
IC50, pseudovirus neutralization [30]: 0.005 µg/mL
IC50, pseudovirus neutralization [31]: 0.004 µg/mL
IC50, pseudovirus neutralization [32]: > 50 µg/mL
IC80, pseudovirus neutralization [33]: 0.403 µg/mL
IC50, pseudovirus neutralization [34]: 0.002 µg/mL
IC50, pseudovirus neutralization [35]: 11.6 µg/mL
IC50, pseudovirus neutralization [36]: 0.003 µg/mL
% vs Neutralized, IC50 < 0.01 ug/ml [37]: 49%
% vs Neutralized, IC50 < 0.1 ug/ml [37]: 63%
% vs Neutralized, IC50 < 1.0 ug/ml [37]: 70%
% vs Neutralized, IC50 < 10 ug/ml [37]: 75%
% vs Neutralized, IC50 < 50 ug/ml [37]: 77%
% vs Neutralized, IC80 < 0.01 ug/ml [37]: 26.9%
% vs Neutralized, IC80 < 0.1 ug/ml [37]: 56.2%
% vs Neutralized, IC80 < 1.0 ug/ml [37]: 63.5%
% vs Neutralized, IC80 < 10 ug/ml [37]: 70.2%
% vs Neutralized, IC80 < 50 ug/ml [37]: 72.6%
Geometric Mean (IC50) [37]: 0.0148 µg/mL
Geometric Mean IC80 [37]: 0.0351 µg/mL
Median IC50 [37]: 0.0055 µg/mL
Median IC80 [37]: 0.015 µg/mL
Total VS Neutralized, IC50 < 0.01 ug/ml (viruses of 208) [37]: 101
Total VS Neutralized, IC50 < 0.1 ug/ml (viruses of 208) [37]: 130
Total VS Neutralized, IC50 < 1.0 ug/ml (viruses of 208) [37]: 145
Total VS Neutralized, IC50 < 10 ug/ml (viruses of 208) [37]: 156
Total VS Neutralized, IC50 < 50 ug/ml (viruses of 208) [37]: 160
Total VS Neutralized, IC80 < 0.01 ug/ml (viruses of 208) [37]: 56
Total VS Neutralized, IC80 < 0.1 ug/ml (viruses of 208) [37]: 117
Total VS Neutralized, IC80 < 1.0 ug/ml (viruses of 208) [37]: 132
Total VS Neutralized, IC80 < 10 ug/ml (viruses of 208) [37]: 146
Total VS Neutralized, IC80 < 50 ug/ml (viruses of 208) [37]: 151
IC50, pseudovirus neutralization [38]: 0.004 µg/mL
IC50, pseudovirus neutralization [39]: 0.003 µg/mL
IC50, pseudovirus neutralization [40]: 0.002 µg/mL
IC50, pseudovirus neutralization [41]: 0.489 µg/mL
IC80, pseudovirus neutralization [42]: 3 µg/mL
IC50, pseudovirus neutralization [43]: 0.014 µg/mL
